This is an account of results in PMC5946489, “Inactivation of the tight junction gene CLDN11 by aberrant hypermethylation modulates tubulins polymerization and promotes cell migration in nasopharyngeal carcinoma”.

This data set deals with GST-GATA1 (UniProt P15976 1-413). As to the kind of experiment: EMSA; GATA1 antibody used for supershift; Pull-down: probes immobilised on M-280 beads in 5 mM Tris-HCl pH 7.5, 0.5 mM EDTA, 1 M NaCl; 100 ug nuclear extract; washes in binding buffer (composition not given) with 0.5% NP40. EMSA as described previously (ref. 9); temperature not stated. Particulars: protein: commercial; tags: GST; label: 5'-biotin; blunt. A general note: In EMSA bound probe runs differently from free probe, usually more slowly.
GST-GATA1, sequence (P15976 whole entry): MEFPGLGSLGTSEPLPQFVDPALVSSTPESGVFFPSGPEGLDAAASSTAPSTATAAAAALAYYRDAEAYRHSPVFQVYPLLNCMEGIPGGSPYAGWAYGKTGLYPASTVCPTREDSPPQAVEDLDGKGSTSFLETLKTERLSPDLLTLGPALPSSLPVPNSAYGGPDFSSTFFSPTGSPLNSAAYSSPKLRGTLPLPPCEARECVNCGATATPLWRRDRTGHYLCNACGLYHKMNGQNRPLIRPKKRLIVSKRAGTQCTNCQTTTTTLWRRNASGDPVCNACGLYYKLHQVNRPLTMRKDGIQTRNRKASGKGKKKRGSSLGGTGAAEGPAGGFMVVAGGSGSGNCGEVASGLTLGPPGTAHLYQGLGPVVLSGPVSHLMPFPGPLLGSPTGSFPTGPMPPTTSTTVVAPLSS

B1: GATA1/2 WT probe (dsDNA)
DNA 1: CTGCCGCCGATTGGTGCTCGC
DNA 2: GCGAGCACCAATCGGCGGCAG
For B1, the binding result was “binds”.
